Target: GST-tagged Polo-box domain (PBD) of Plk1 (UniProt P53350)
Experiment: GST pull-down with anti-GFP immunoblot, band quantification
Settings: mitotic lysates of U2OS cell lines; immobilized GST-Plk1-PBD; input levels set to 100%; parent: est. 56; read off a plot

UniProt P53350, sequence (P53350 326-603): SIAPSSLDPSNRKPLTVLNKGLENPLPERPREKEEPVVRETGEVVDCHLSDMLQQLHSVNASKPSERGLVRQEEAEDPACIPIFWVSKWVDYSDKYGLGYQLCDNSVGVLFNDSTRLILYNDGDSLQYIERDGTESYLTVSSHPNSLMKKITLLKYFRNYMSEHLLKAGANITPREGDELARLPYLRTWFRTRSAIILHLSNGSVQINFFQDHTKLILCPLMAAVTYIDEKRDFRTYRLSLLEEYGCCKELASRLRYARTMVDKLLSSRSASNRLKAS

Row | Substance | response
1 | GFP-tagged murine 53BP1, wild type (from UniProt P70399) S376A | 10 % of input
2 | GFP-tagged murine 53BP1, wild type (from UniProt P70399) S1620A | 78 % of input
